One data set deals with CC1OC(O)C(O)C(O)C1O. Put plainly: purified protein, by the assay type. To be noted: other: sugar 1-16 mM, saturating ATP (15 mM).
A further data set relates to NC1C(O)OC(CO)C(O)C1O. Put plainly: purified protein, by the assay type. Conditions: other: sugar 1-16 mM, saturating ATP (15 mM).
Another data set concerns NCC1OC(O)C(O)C(O)C1O. Kind of data set: purified protein, by the assay type. To be noted: other: sugar 1-16 mM, saturating ATP (15 mM).
A further data set deals with O=C(O)C1OC(O)C(O)C(O)C1O. Put plainly: purified protein, by the assay type. Conditions: other: sugar 1-16 mM, saturating ATP (15 mM).
Data set [1] has as its system O=C[C@H](O)C[C@@H](O)[C@H](O)CO. Put plainly: purified protein, by the assay type. Conditions: other: sugar 1-16 mM, saturating ATP (15 mM).
The next data set relates to OCC1OC(O)CC(O)C1O. Put plainly: purified protein, by the assay type. To be noted: other: sugar 1-16 mM, saturating ATP (15 mM).
In the next data set the target is T1, L. lactis wild-type GalK (Lactococcus lactis subsp. lactis, UniProt Q9R7D7).
T1 sequence (Q9R7D7 1-399): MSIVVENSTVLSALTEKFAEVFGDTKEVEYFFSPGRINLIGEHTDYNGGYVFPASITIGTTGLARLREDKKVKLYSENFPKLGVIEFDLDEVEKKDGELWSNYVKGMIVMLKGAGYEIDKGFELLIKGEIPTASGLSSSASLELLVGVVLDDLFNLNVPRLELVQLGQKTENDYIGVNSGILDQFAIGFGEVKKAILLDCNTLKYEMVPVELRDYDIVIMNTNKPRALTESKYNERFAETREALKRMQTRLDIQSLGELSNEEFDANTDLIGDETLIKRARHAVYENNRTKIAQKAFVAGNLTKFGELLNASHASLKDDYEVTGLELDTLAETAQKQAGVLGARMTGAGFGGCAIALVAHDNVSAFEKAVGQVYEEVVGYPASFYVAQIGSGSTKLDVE
To be noted: in vitro; cited from earlier work.

The target of the next data set is GalK mutant Y371H (Escherichia coli, UniProt P0A6T3, Y371H). Conditions: sugar 1-16 mM, saturating ATP (15 mM).
Sequence of GalK mutant Y371H (P0A6T3 whole entry Y371H): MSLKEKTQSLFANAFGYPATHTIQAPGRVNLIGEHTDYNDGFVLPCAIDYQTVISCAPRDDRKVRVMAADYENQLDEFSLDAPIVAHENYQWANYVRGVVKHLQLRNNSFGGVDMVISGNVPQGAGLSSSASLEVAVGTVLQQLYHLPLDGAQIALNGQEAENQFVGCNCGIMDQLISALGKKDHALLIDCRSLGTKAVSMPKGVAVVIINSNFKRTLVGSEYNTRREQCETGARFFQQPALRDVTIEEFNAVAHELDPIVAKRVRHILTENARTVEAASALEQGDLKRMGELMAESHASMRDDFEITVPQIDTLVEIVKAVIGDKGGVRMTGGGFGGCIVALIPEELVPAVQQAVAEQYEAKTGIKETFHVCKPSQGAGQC
Substrate in data set [2]: CC1OC(O)C(O)C(O)C1O
Kind of data set: Kinetics and substrate specificity of wild-type GalK with sugar substrates (DNS assay), Table 1. Type of data set: biochemical, E. coli. Conditions: other: sugar 1-16 mM, saturating ATP (15 mM).

Substrate in data set [3]: NC1C(O)OC(CO)C(O)C1O
Described as above. The data set is classed as biochemical, E. coli. Conditions: other: sugar 1-16 mM, saturating ATP (15 mM).

Substrate in data set [4]: O=C[C@H](O)C[C@@H](O)[C@H](O)CO
The data set is described as above. The data set is classed as biochemical, E. coli. To be noted: other: sugar 1-16 mM, saturating ATP (15 mM).

Substrate in data set [5]: OCC1OC(O)CC(O)C1O
Described as above. The data set is classed as biochemical, E. coli. Conditions: other: sugar 1-16 mM, saturating ATP (15 mM).

As to “GalK mutant Y371H (Escherichia coli K-12; Y371H)”, the Km with CC1OC(O)C(O)C(O)C1O amounted to 8.0 mM; in the data set with NC1C(O)OC(CO)C(O)C1O, 8.8 mM; in the data set with NCC1OC(O)C(O)C(O)C1O it was 21.3 mM; with O=C(O)C1OC(O)C(O)C(O)C1O, 3.2 mM; in [1] it was 10.1 mM; in the data set with OCC1OC(O)CC(O)C1O, 4.7 mM. In addition, the kcat is 1.68 s⁻¹ in the data set with CC1OC(O)C(O)C(O)C1O; 4.33 s⁻¹ with NC1C(O)OC(CO)C(O)C1O; 2.48 s⁻¹ in the data set with NCC1OC(O)C(O)C(O)C1O; 0.967 s⁻¹ in the data set with O=C(O)C1OC(O)C(O)C(O)C1O; 1.08 s⁻¹ in data set [1]; 3.33 s⁻¹ in the data set on OCC1OC(O)CC(O)C1O. The kcat/Km was determined as 210 M⁻¹ s⁻¹ in the data set with CC1OC(O)C(O)C(O)C1O; 492 M⁻¹ s⁻¹ in the data set with NC1C(O)OC(CO)C(O)C1O; 117 M⁻¹ s⁻¹ in the data set on NCC1OC(O)C(O)C(O)C1O; 302 M⁻¹ s⁻¹ in the data set on O=C(O)C1OC(O)C(O)C(O)C1O; 107 M⁻¹ s⁻¹ in data set [1]; 710 M⁻¹ s⁻¹ with OCC1OC(O)CC(O)C1O.
For the molecule `O=C[C@H](O)[C@@H](O)C[C@H](O)CO` [4-deoxy-D-galactose (25), 4-deoxy-D-galactose], on L. lactis wild-type GalK, the “conversion / activity with L. lactis wild-type GalK (in words)” value was “in vitro conversion”.
For `O=C[C@@H](O)[C@H](O)[C@@H](O)[C@@H](O)CO` [L-Glc (25), L-glucose], at GalK mutant Y371H (read-out: Km, Y371H), the Km is 2.7 mM. The “kcat, Y371H” value at GalK mutant Y371H stood at 1.08 s⁻¹.

B1: wild-type E. coli GalK (Escherichia coli K-12) (protein)
chain: MSLKEKTQSLFANAFGYPATHTIQAPGRVNLIGEHTDYNDGFVLPCAIDYQTVISCAPRDDRKVRVMAADYENQLDEFSLDAPIVAHENYQWANYVRGVVKHLQLRNNSFGGVDMVISGNVPQGAGLSSSASLEVAVGTVLQQLYHLPLDGAQIALNGQEAENQFVGCNCGIMDQLISALGKKDHALLIDCRSLGTKAVSMPKGVAVVIINSNFKRTLVGSEYNTRREQCETGARFFQQPALRDVTIEEFNAVAHELDPIVAKRVRHILTENARTVEAASALEQGDLKRMGELMAESHASMRDDFEITVPQIDTLVEIVKAVIGDKGGVRMTGGGFGGCIVALIPEELVPAVQQAVAEQYEAKTGIKETFYVCKPSQGAGQC
notes: made in house
With B1, the Michaelis constant (Km) is 4.9 mM in data set [2], 2.9 mM in [3], 6.4 mM in data set [4] and 3.6 mM in [5]. The turnover number (kcat) in data set [2] is 0.0483 s⁻¹; in [3], 0.195 s⁻¹; in data set [4] it was 0.085 s⁻¹; in data set [5] it was 0.5 s⁻¹. In addition, the kcat/Km in data set [2] amounted to 9.83 M⁻¹ s⁻¹; in [3], 66.7 M⁻¹ s⁻¹; in data set [4], 13 M⁻¹ s⁻¹; in [5] it was 138 M⁻¹ s⁻¹.

Source of the values: US7479385B2, “Sugar kinases with expanded substrate specificity and their use” (Wisconsin Alumni Research Foundation, priority 2003, dated 2009).
